Our source for the 吸光度(A450)均值 values is CN110760003A.

The assay deals with 人HER3胞外区蛋白 (human HER3 extracellular region protein) (human) (UniProt P21860). Put plainly: ELISA; human HER3 extracellular region coated at 2 μg/mL, scFv at 2 μg/mL, detected with HRP anti-6×His Tag antibody, TMB, triplicate wells (mean ± deviation). On the technique in general: In an ELISA, binding on a coated surface is turned into a signal by an enzyme label.

B1: 抗HER3单链抗体 (anti-HER3-scFv) (scFv)
scFv: QVQLVESGGGLVQPGGSLRLSCAASGFTFSSYAMSWVRQAPGKGLEWVSAINSQGKSTYYADSVKGRFTISRDNSKNTLYLQMNSLRAEDTAVYYCARWGDEGFDIWGQGTLVTVSSGGGGSGGGGSGGGGSDIQMTQSPSSLSASVGDRVTITCRASQGISNWLAWYQQKPGKAPKLLIYGASSLQSGVPSRFSGSGSGTDFTLTISSLQPEDFAVYYCQQYSSFPTTFGQGTKVEIK
B1 showed a 吸光度(A450)均值 of 0.961 A450.
